Measured values reported in patent publication US20240417458A1 (DISC MEDICINE, published 2024).

T1: soluble human RGMa (human, UniProt Q96B86 48-422, limits assumed)
T1 construct: Soluble antigen in BIAcore; also called huRGMa; repulsive guidance molecule A
T1 sequence (looked up): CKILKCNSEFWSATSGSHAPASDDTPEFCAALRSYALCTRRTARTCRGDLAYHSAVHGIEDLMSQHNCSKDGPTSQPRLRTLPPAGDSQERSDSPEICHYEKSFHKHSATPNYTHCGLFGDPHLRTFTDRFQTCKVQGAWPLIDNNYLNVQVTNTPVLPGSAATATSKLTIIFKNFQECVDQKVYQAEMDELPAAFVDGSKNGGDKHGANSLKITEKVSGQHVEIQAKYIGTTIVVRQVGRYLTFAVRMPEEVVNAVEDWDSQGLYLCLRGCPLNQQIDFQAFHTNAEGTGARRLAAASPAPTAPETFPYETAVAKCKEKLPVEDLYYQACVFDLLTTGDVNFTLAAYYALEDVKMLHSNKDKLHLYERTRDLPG

T2: soluble rat RGMa (rat, UniProt D4A188 48-421)
T2 construct: Soluble antigen in BIAcore
T2 sequence: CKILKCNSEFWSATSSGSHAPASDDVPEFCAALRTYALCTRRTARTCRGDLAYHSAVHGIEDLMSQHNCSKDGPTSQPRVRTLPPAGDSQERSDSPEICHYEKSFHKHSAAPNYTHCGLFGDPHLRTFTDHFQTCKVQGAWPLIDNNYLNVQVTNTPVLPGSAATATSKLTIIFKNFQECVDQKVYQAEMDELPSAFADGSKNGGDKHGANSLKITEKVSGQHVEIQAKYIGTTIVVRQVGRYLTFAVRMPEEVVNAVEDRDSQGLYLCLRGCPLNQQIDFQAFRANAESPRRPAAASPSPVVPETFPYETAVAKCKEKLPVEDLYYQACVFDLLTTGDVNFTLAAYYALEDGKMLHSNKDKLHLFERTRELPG

T3: soluble human RGMc (human, UniProt Q6ZVN8 36-400)
T3 construct: also called huRGMc; soluble hRGMc
T3 sequence: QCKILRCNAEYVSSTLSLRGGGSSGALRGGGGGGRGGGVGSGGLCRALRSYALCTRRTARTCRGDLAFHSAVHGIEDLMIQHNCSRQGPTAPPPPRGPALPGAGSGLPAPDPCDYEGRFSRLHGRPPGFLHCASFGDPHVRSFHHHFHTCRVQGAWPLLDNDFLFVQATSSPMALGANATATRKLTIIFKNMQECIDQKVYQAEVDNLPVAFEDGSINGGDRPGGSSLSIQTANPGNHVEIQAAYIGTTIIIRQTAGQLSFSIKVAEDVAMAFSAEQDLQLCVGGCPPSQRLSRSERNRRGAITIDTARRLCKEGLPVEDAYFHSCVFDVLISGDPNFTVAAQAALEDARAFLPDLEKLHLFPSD

T4: membrane-bound human RGMc (human, UniProt Q6ZVN8 36-400)
T4 sequence: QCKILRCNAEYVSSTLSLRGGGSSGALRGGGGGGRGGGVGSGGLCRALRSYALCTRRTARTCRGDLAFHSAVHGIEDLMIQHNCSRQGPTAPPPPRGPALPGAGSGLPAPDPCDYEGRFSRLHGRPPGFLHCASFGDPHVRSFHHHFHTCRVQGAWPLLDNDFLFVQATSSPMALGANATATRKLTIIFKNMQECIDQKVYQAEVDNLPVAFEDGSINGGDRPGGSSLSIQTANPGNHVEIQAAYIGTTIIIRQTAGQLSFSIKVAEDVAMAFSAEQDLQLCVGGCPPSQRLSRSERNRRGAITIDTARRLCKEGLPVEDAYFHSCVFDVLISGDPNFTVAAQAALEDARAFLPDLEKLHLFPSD

T5: membrane-bound human RGMa (human, UniProt Q96B86 169-424)
T5 sequence (looked up): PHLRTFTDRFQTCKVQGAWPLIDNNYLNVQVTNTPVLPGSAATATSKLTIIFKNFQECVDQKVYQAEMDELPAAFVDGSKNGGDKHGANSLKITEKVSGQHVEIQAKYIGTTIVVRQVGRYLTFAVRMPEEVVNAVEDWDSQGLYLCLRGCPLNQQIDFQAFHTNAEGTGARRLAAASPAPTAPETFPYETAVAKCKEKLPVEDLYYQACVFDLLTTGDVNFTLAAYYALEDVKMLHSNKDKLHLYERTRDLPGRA

B1: hHA-001 (antibody, human IgG1, kappa, L234A L235A, V domains shown)
VH: EVQLVESGGGLVQPGGSLRLSCAASGFTFSNYGMNWIRQAPGKGLEWIGMIYYDSSEKHYADSVKGRFTISRDNSKNTLYLQMNSLRAEDTAVYYCAKGTTPDYWGQGTMVTVSS
VL: DVVLTQSPLSLPVTLGQPASISCRSSQSLETSDGDTFLEWFQQRPGQSPRLLIYEVSTRFSGVPDRFSGSGSGTDFTLKISRVEAEDVGVYYCFQVTHDPMTFGQGTKLEIKR
notes: hIgG1 constant region with L234A, L235A, kappa
B2: hHA-003 (antibody, human IgG1, kappa, L234A L235A, V domains shown)
VH: EVQLVESGGGLVQPGGSLRLSCAASGFTFSNYGMNWIRQAPGKGLEWIGMIYYDSSEKHYADSVKGRFTISRDNSKNTLYLQMNSLRAEDTAVYYCAKGTTPDYWGQGTMVTVSS
VL: DVVLTQSPLSLPVTLGQPASISCRSSQSLETSDGDTFLEWFQQRPGQSPRLLIYEVSNRFSGVPDRFSGSGSGTDFTLKISRVEAEDVGVYYCFQVTHDPVTFGQGTKLEIKR
notes: hIgG1 L234A, L235A, kappa
B3: hHA-002 (antibody, human IgG1, kappa, L234A L235A, V domains shown)
VH: EVQLVESGGGLVQPGGSLRLSCAASGFTFSNYGMNWIRQAPGKGLEWIGMIYYDSSEKHYADSVKGRFTISRDNSKNTLYLQMNSLRAEDTAVYYCAKGTTPDYWGQGTMVTVSS
VL: DVVLTQSPLSLPVTLGQPASISCRSSQSLETSDGDTFLEWFQQRPGQSPRLLIYEVSSRFSGVPDRFSGSGSGTDFTLKISRVEAEDVGVYYCMQVTHDPLTFGQGTKLEIKR
notes: hIgG1 L234A, L235A, kappa
B4: hHA-010 (antibody, human IgG1, kappa, L234A L235A, V domains shown)
VH: EVQLVESGGGLVQPGGSLRLSCAASGFTFSNYGMNWVRQAPGKGLEWIGMIYYDSSEKHYADSVKGRFTISRDNSKNTLYLQMNSLRAEDTAVYYCAKGTTPDKWGQGTMVTVSS
VL: DVVLTQSPLSLPVTLGQPASISCRSSQSLEESDGYTFLEWFQQRPGQSPRLLIYEVSHRFSGVPDRFSGSGSGTDFTLKISRVEAEDVGVYYCFQATHDPLTFGQGTKLEIKR
notes: hIgG1 L234A, L235A, kappa
B5: hHA-006 (antibody, human IgG1, kappa, L234A L235A, V domains shown)
VH: EVQLVESGGGLVQPGGSLRLSCAASGFTFSYYGMNWIRQAPGKGLEWIGMIYYDSSEKHYADSVKGRFTISRDNSKNTLYLQMNSLRAEDTAVYYCAKGTTPDYWGQGTMVTVSS
VL: DVVLTQSPLSLPVTLGQPASISCRSSQSLEDSDGGTFLEWFQQRPGQSPRLLIYDVSSRFSGVPDRFSGSGSGTDFTLKISRVEAEDVGVYYCFQATHDPLTFGQGTKLEIKR
notes: hIgG1 L234A, L235A, kappa
B6: hHA-009 (antibody, human IgG1, kappa, L234A L235A, V domains shown)
VH: EVQLVESGGGLVQPGGSLRLSCAASGFTFSNYGMNWVRQAPGKGLEWIGMIYYDSSEKHYADSVKGRFTISRDNSKNTLYLQMNSLRAEDTAVYYCAKGTTPDYWGQGTMVTVSS
VL: DVVLTQSPLSLPVTLGQPASISCRSSQSLADSDGDTFLHWFQQRPGQSPRLLIYAVSHRFSGVPDRFSGSGSGTDFTLKISRVEAEDVGVYYCFQATHDPVTFGQGTKLEIKR
notes: hIgG1 L234A, L235A, kappa
B7: hHA-007 (antibody, human IgG1, kappa, L234A L235A, V domains shown)
VH: EVQLVESGGGLVQPGGSLRLSCAASGFTFSNYGMNWIRQAPGKGLEWIGMIYYDSSDKHYADSVKGRFTISRDNSKNTLYLQMNSLRAEDTAVYYCAKGTTPDVWGQGTMVTVSS
VL: DVVLTQSPLSLPVTLGQPASISCRSSQSLEESDGYTFLHWFQQRPGQSPRLLIYEVSNRFSGVPDRFSGSGSGTDFTLKISRVEAEDVGVYYCFQATHDPVTFGQGTKLEIKR
notes: hIgG1 L234A, L235A, kappa
B8: hHA-005 (antibody, human IgG1, kappa, L234A L235A, V domains shown)
VH: EVQLVESGGGLVQPGGSLRLSCAASGFTFSNYGMNWIRQAPGKGLEWIGMIYYDSSEKHYADSVKGRFTISRDNSKNTLYLQMNSLRAEDTAVYYCAKGTTPDYWGQGTMVTVSS
VL: DVVLTQSPLSLPVTLGQPASISCRSSQSLEESDGYTFLEWFQQRPGQSPRLLIYDVSERFSGVPDRFSGSGSGTDFTLKISRVEAEDVGVYYCFQATYDPLTFGQGTKLEIKR
notes: hIgG1 L234A, L235A, kappa
B9: hHA-004 (antibody, human IgG1, kappa, L234A L235A, V domains shown)
VH: EVQLVESGGGLVQPGGSLRLSCAASGFTFSNYGMNWIRQAPGKGLEWIGMIYYDSSEKHYADSVKGRFTISRDNSKNTLYLQMNSLRAEDTAVYYCAKGTTPDYWGQGTMVTVSS
VL: DVVLTQSPLSLPVTLGQPASISCRSSQSLESSDGDTFLEWFQQRPGQSPRLLIYDVSTRFSGVPDRFSGSGSGTDFTLKISRVEAEDVGVYYCFQVTHDPVTFGQGTKLEIKR
notes: hIgG1 L234A, L235A, kappa

Experiments:
[1] = biological target: T1, soluble human RGMa; experiment: SPR (BIAcore);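 note: Anti-HJV antibodies tested for binding against soluble human RGMa by surface plasmon resonance on a BIAcore instrument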
Method: (§1) Binding affinities of the anti-HJV antibodies to soluble human RGMa, Rat RGMa and human RGMc were measured by BIAcore analysis.

[2] = biological target: T2, soluble rat RGMa; experiment: SPR (BIAcore);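 note: binding kinetics and affinity of anti-HJV antibodies toward soluble rat RGMa, determined by SPR on a BIAcore instrument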
Method: as §1

[3] = biological target: T3, soluble human RGMc; experiment: SPR (BIAcore);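 note: Anti-HJV antibodies, binding affinity to soluble human RGMc measured by BIAcore surface plasmon resonance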
Method: as §1

[4] = biological target: T4, membrane-bound human RGMc; experiment: cell-based or functional assay
[5] = biological target: T4, membrane-bound human RGMc; experiment: cell-based or functional assay; remark: listed apart in the source
[6] = biological target: T4, membrane-bound human RGMc; experiment: cell-based or functional assay; remark: listed apart in the source
[7] = biological target: T3, soluble human RGMc; experiment: SPR (BIAcore), soluble hRGMc; summary table
[8] = biological target: T5, membrane-bound human RGMa; experiment: cell-based or functional assay
[9] = biological target: T5, membrane-bound human RGMa; experiment: cell-based or functional assay; remark: listed apart in the source
[10] = biological target: T5, membrane-bound human RGMa; experiment: cell-based or functional assay; remark: listed apart in the source

Row | Binder | Kd [1] | koff [1] | kon [1] | Kd [2] | koff [2] | kon [2] | Kd [3] | koff [3] | kon [3] | IC50 (nM), BMP reporter assay for RGMc (BRE-Luc, HEK293) [4] | Potency on membrane hRGMc (RGMc/BMP reporter assay), IC50 [5] | IC50 (read off the curve) [6] | Kd [7] | koff [7] | kon [7] | IC50 (nM), BMP reporter assay for RGMa [8] | Potency on membrane hRGMa (RGMa/BMP reporter assay), IC50 [9] | IC50 (read off the curve) [10]
1 | B1 | 0.038 nM | 6.7e-05 s⁻¹ | 1.8e+06 M⁻¹ s⁻¹ | 0.031 nM | 3.6e-05 s⁻¹ | 1.2e+06 M⁻¹ s⁻¹ | 0.16 nM | 0.00165 s⁻¹ | 1.08e+07 M⁻¹ s⁻¹ | – | – | – | – | – | – | – | – | –
2 | B2 | 0.12 nM | 0.00014 s⁻¹ | 1.1e+06 M⁻¹ s⁻¹ | 0.036 nM | 3.1e-05 s⁻¹ | 870000 M⁻¹ s⁻¹ | 0.3 nM | 0.0024 s⁻¹ | 8.1e+06 M⁻¹ s⁻¹ | – | – | – | – | – | – | – | – | –
3 | B3 | 0.037 nM | 5e-05 s⁻¹ | 1.4e+06 M⁻¹ s⁻¹ | 0.053 nM | 5.5e-05 s⁻¹ | 1e+06 M⁻¹ s⁻¹ | 0.225 nM | 0.0017 s⁻¹ | 7.65e+06 M⁻¹ s⁻¹ | – | – | – | – | – | – | – | – | –
4 | B4 | 0.12 nM | 0.0001 s⁻¹ | 850000 M⁻¹ s⁻¹ | 0.039 nM | 2.6e-05 s⁻¹ | 660000 M⁻¹ s⁻¹ | 0.445 nM | 0.0044 s⁻¹ | 9.9e+06 M⁻¹ s⁻¹ | – | – | – | – | – | – | – | – | –
5 | B5 | 0.12 nM | 0.00014 s⁻¹ | 1.2e+06 M⁻¹ s⁻¹ | 0.032 nM | 3e-05 s⁻¹ | 940000 M⁻¹ s⁻¹ | 0.385 nM | 0.00255 s⁻¹ | 6.65e+06 M⁻¹ s⁻¹ | – | – | – | – | – | – | – | – | –
6 | B6 | 0.47 nM | 0.0004 s⁻¹ | 860000 M⁻¹ s⁻¹ | 0.31 nM | 0.00021 s⁻¹ | 680000 M⁻¹ s⁻¹ | 0.71 nM | 0.0107 s⁻¹ | 1.55e+07 M⁻¹ s⁻¹ | 1.36 nM | 1.36 nM | ~2 nM | 0.71 nM | 0.0107 s⁻¹ | 1.55e+07 M⁻¹ s⁻¹ | – | – | –
7 | B7 | 0.15 nM | 8.9e-05 s⁻¹ | 590000 M⁻¹ s⁻¹ | < 0.002 nM | < 1e-06 s⁻¹ | 510000 M⁻¹ s⁻¹ | 0.425 nM | 0.00215 s⁻¹ | 5.05e+06 M⁻¹ s⁻¹ | – | – | – | – | – | – | – | – | –
8 | B8 | 0.13 nM | 0.00025 s⁻¹ | 1.9e+06 M⁻¹ s⁻¹ | 0.15 nM | 0.00021 s⁻¹ | 1.4e+06 M⁻¹ s⁻¹ | 0.32 nM | 0.0136 s⁻¹ | 4.15e+07 M⁻¹ s⁻¹ | – | – | – | – | – | – | – | – | –
9 | B9 | 0.015 nM | 2.2e-05 s⁻¹ | 1.4e+06 M⁻¹ s⁻¹ | < 0.00094 nM | < 1e-06 s⁻¹ | 1.1e+06 M⁻¹ s⁻¹ | 0.13 nM | 0.00104 s⁻¹ | 7.85e+06 M⁻¹ s⁻¹ | 0.312 nM | 0.31 nM | ~0.3 nM | 0.13 nM | 0.00104 s⁻¹ | 7.85e+06 M⁻¹ s⁻¹ | 2.01 nM | 2 nM | ~2 nM
